Test results as given in article PMC13254101.

How the values were obtained:
[1] = target: CrAPE1_(C128S), recombinant soluble domain of Chlamydomonas APE1 with C128S (Chlamydomonas reinhardtii); test: SEC-MALS
[2] = target: CrAPE1_(C247S), recombinant soluble domain of Chlamydomonas APE1 with C247S (Chlamydomonas reinhardtii); test: SEC-MALS

Row | Substance | stoichiometry N [1] | stoichiometry N [2]
1 | CrAPE1_(C128S), recombinant soluble domain of Chlamydomonas APE1 with C128S (domain or fragment) | 2 | –
2 | CrAPE1_(C247S), recombinant soluble domain of Chlamydomonas APE1 with C247S (domain or fragment) | – | 2
